Measurements as given in patent US20060134087A1, “ITI-D1 Kunitz domain mutants as hNE inhibitors” (Dyax Corp., priority 1988, published 2006).
Each block holds one substance with its values, some of them ahead of it.

Assays:
[1] = biological target: T1, hNE (Homo sapiens, UniProt P08246); assay: Kinetic on-rate of inhibitors reacting with hNE (progressive inhibition); type: biochemical; conditions: for kon: [hNE] = 8.47 × 10^−10 molar; for koff: calculated from koff = KD × kon
T1 sequence (P08246 30-267): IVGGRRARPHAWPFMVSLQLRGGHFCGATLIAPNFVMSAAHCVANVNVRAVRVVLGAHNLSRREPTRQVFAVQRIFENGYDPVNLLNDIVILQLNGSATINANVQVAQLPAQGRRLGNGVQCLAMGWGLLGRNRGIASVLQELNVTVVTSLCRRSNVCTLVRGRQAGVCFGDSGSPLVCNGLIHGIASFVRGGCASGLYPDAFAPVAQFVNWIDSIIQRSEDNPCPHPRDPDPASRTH
Protocol: The kinetic on-rates for the inhibitors reacting with hNE (kon) were determined from measurements of progressive inhibition of substrate hydrolytic activity by hNE following addition of inhibitor. For these experiments, a known concentration of inhibitor was added to a solution of hNE (0.847 nM) and substrate (25 μM) in 2 ml of reaction buffer in a plastic fluorescence cuvette. The change in fluorescence was recorded continuously following addition of the inhibitor. […] The enzymatic rate at selected times following addition of the inhibitor was determined from the slope of the tangent to the fluorescence time course at that time.
The kinetic constant kon for EPI-HNE-2 reacting with hNE was determined as follows. EPI-HNE-2 at 1.3 nM was added to buffer containing 0.867 nM hNE (I:E=1.5:1) at time 0. Measured percent residual activity was recorded as a function of time after addition of inhibitor. A least-squares fit program was used to obtain the value of kon=4.0×10^6 M^−1s^−1.
The kinetic off rate, koff, is calculated from the measured values of Ki and kon as: […] The values from such measurements are included in Table 30. The EPI-HNE proteins are small, high affinity, fast acting inhibitors of hNE. B. Specificity.

[2] = biological target: T1, hNE; assay: hNE inhibition, hydrolysis of fluorogenic substrate (Ki; standard hNE-inhibition assay); type: biochemical; design: concentration or dose not given beside the values
Protocol: Inhibition constants for the proteins reacting with hNE (Ki) were determined using RT measurements of hydrolysis of a fluorogenic substrate (N-methoxysuccinyl-Ala-Ala-Pro-Val-7-amino-4-methylcoumarin, Sigma M-9771) by hNE. For these measurements, aliquots of the appropriately diluted inhibitor stocks were added to 2 ml solutions of 0.847 nM hNE in reaction buffer (50 mM Tris-Cl, pH=8.0, 150 mM NaCl, 1 mM CaCl2, 0.25% Triton-X-100) in plastic fluorescence cuvettes. The reactions were incubated at RT for 30 minutes. At the end of the incubation period, the fluorogenic substrate was added at a concentration of 25 μM and the time course for increase in fluorescence at 470 nm (excitation at 380 nm) due to enzymatic substrate cleavage was recorded using a spectrofluorimeter (Perkin-Elmer 650-15) and strip chart recorder. […] Ki is related to Kapparent by Ki=Kapparent×(1/(1+(S0/Km))). The correction is small compared to the possible errors in Kapparent. Rates of enzymatic substrate cleavage were determined from the linear slopes of the recorded increases in fluorescence. The percent residual activity of hNE in the presence of the inhibitor was calculated as the percentage of the rate of fluorescence increase observed in the presence of the inhibitor to that observed when no added inhibitor was present.
We recorded data used to determine Ki for EPI-HNE-2 and EPI-HNE-3 reacting with hNE. Data obtained as described above are recorded as percent residual activity plotted as a function of added inhibitor. Values for Ki and for active inhibitor concentration in the stock are obtained from a least-squares fit program.

[3] = biological target: T1, hNE; assay: Resistance to oxidative inactivation by Chloramine-T, residual hNE-inhibition activity; type: physicochemical; conditions: for Percent Residual hNE-Inhibitory Activity: 20 minutes at RT
Protocol: At the end of the incubation period, the oxidation reactions were quenched by adding methionine to a final concentration of 4 mM. After a further 10 minute incubation, the quenched reactions were diluted and assayed for residual inhibitor activity in our standard hNE-inhibition assay.
Inhibitors were incubated in the presence of Chloramine-T at the molar ratios indicated for 20 minutes at RT. Oxidation reactions were quenched by adding methionine to a final concentration of 4 mM. Residual hNE-inhibition activity remaining in the quenched reactions is shown as a percentage of the activity observed with no added oxidant.

[4] = biological target: T1, hNE; assay: Temperature stability, residual inhibitory activity for hNE; type: physicochemical; design: Residual hNE Inhibitory Activity: unit not given here; conditions: for Residual hNE Inhibitory Activity: 18 hours, pH 7.0, 1 μM protein; for temperature below which full inhibitory activity is maintained: thirty minutes, 1 μM, phosphate buffer pH=7
Protocol: The stability of EPI-HNE proteins to temperatures in the range 0° C. to 95° C. was assessed by incubating the inhibitors for thirty minutes at various temperatures and determining residual inhibitory activity for hNE. In these experiments, protein concentrations were 1 μM in phosphate buffer at pH=7. As is shown in Table 40, the four inhibitors are quite temperature stable.
Proteins were incubated at the stated temperature for 18 hours in buffer at pH 7.0. In all cases protein concentrations were 1 μM. At the end of the incubation period, aliquots of the reactions were diluted and residual hNE-inhibition activity determined.

[5] = Molar Ratio CHL-T:Inhibitor 1.0
[6] = Molar Ratio CHL-T:Inhibitor 10.
[7] = Molar Ratio CHL-T:Inhibitor .50

- kon [1]: 8.0 10^6/M/s
- koff [1]: 50. 10^−6/s
- Percent residual hNE activity ([2]; 10. μl of EPI-HNE-3 solution added): 81.6%
- Percent residual hNE activity ([2]; 20. μl of EPI-HNE-3 solution added): 66.9%
- Percent residual hNE activity ([2]; 30. μl of EPI-HNE-3 solution added): 53.4%
- Percent residual hNE activity ([2]; 40. μl of EPI-HNE-3 solution added): 38.0%
- Percent residual hNE activity ([2]; 50. μl of EPI-HNE-3 solution added): 27.6%
- Percent residual hNE activity ([2]; 55. μl of EPI-HNE-3 solution added): 21.5%
- Percent residual hNE activity ([2]; 60. μl of EPI-HNE-3 solution added): 13.0%
- Percent residual hNE activity ([2]; 65. μl of EPI-HNE-3 solution added): 11.0%
- Percent residual hNE activity ([2]; 70. μl of EPI-HNE-3 solution added): 7.9%
- Percent residual hNE activity ([2]; 75. μl of EPI-HNE-3 solution added): 3.8%
- Percent residual hNE activity ([2]; 80. μl of EPI-HNE-3 solution added): 3.3%
- Percent residual hNE activity ([2]; 85. μl of EPI-HNE-3 solution added): 2.1%
- Percent residual hNE activity ([2]; 90. μl of EPI-HNE-3 solution added): 1.8%
- Percent residual hNE activity ([2]; 100. μl of EPI-HNE-3 solution added): 1.6%
- Percent residual hNE activity ([2]; 110. μl of EPI-HNE-3 solution added): 0.8%
- Percent residual hNE activity ([2]; 120. μl of EPI-HNE-3 solution added): 0.7%
- Percent residual hNE activity ([2]; 160. μl of EPI-HNE-3 solution added): 0.6%
- Percent residual hNE activity ([2]; 200. μl of EPI-HNE-3 solution added): 0.2%
Substance: EPI-HNE-3: ITI-D2(3-58) with R15I, I18F, Q19P, L20R; SEQ ID NO 026 (AACNLPIVRGPCIAFFPRWAFDAVKGKCVLFPYGGCQGNGNKFYSEKECREYCGVP; Epi-HNE-3)
- Percent Residual hNE-Inhibitory Activity ([3]; Molar Ratio CHL-T:Inhibitor 0): 100%
- Percent Residual hNE-Inhibitory Activity [3, 5]: 97%
- Percent Residual hNE-Inhibitory Activity ([3]; Molar Ratio CHL-T:Inhibitor 3.0): 97%
- Percent Residual hNE-Inhibitory Activity ([3]; Molar Ratio CHL-T:Inhibitor 5.0): 94%
- Percent Residual hNE-Inhibitory Activity [3, 6]: 97%
- Percent Residual hNE-Inhibitory Activity ([3]; Molar Ratio CHL-T:Inhibitor 30.): 100%
- Percent Residual hNE-Inhibitory Activity ([3]; Molar Ratio CHL-T:Inhibitor 50.): 94%
- Percent Residual hNE-Inhibitory Activity [3, 7]: 97%
- hNE-inhibition activity after exposure to Chloramine-T ([3]; all molar ratios tested (up to 50:1 for EPI-HNE-3 and EPI-HNE-4)): retain essentially complete hNE-inhibition activity
- Residual hNE Inhibitory Activity ([4]; Temperature 0 ° C.): 96
- Residual hNE Inhibitory Activity ([4]; Temperature 23 ° C.): 105
- Residual hNE Inhibitory Activity ([4]; Temperature 37 ° C.): 99
- Residual hNE Inhibitory Activity ([4]; Temperature 52 ° C.): 100
- Residual hNE Inhibitory Activity ([4]; Temperature 65 ° C.): 87
- Residual hNE Inhibitory Activity ([4]; Temperature 80 ° C.): 79
- Residual hNE Inhibitory Activity ([4]; Temperature 93 ° C.): 57
- temperature below which full inhibitory activity is maintained [4]: below 65 °C

- kon [1]: 4.0 10^6/M/s
- koff [1]: 20. 10^−6/s
- Percent residual hNE activity ([2]; 10. μl of EPI-HNE-2 solution added): 82.9%
- Percent residual hNE activity ([2]; 20. μl of EPI-HNE-2 solution added): 71.8%
- Percent residual hNE activity ([2]; 30. μl of EPI-HNE-2 solution added): 59.5%
- Percent residual hNE activity ([2]; 40. μl of EPI-HNE-2 solution added): 46.2%
- Percent residual hNE activity ([2]; 50. μl of EPI-HNE-2 solution added): 39.2%
- Percent residual hNE activity ([2]; 55. μl of EPI-HNE-2 solution added): 32.2%
- Percent residual hNE activity ([2]; 60. μl of EPI-HNE-2 solution added): 22.5%
- Percent residual hNE activity ([2]; 65. μl of EPI-HNE-2 solution added): 23.5%
- Percent residual hNE activity ([2]; 70. μl of EPI-HNE-2 solution added): 15.0%
- Percent residual hNE activity ([2]; 75. μl of EPI-HNE-2 solution added): 10.4%
- Percent residual hNE activity ([2]; 80. μl of EPI-HNE-2 solution added): 8.6%
- Percent residual hNE activity ([2]; 85. μl of EPI-HNE-2 solution added): 4.8%
- Percent residual hNE activity ([2]; 90. μl of EPI-HNE-2 solution added): 1.4%
- Percent residual hNE activity ([2]; 95. μl of EPI-HNE-2 solution added): 2.0%
- Percent residual hNE activity ([2]; 100. μl of EPI-HNE-2 solution added): 2.5%
- Percent residual hNE activity ([2]; 120. μl of EPI-HNE-2 solution added): 0.2%
- Percent residual hNE activity ([2]; 150. μl of EPI-HNE-2 solution added): 0.2%
- Percent residual hNE activity ([2]; 200. μl of EPI-HNE-2 solution added): 0.04%
Substance: EPI-HNE-2: EPI-HNE-1 with four additional residues EAEA at the amino terminus, SEQ ID NO 008
- Percent Residual hNE-Inhibitory Activity ([3]; Molar Ratio CHL-T:Inhibitor 0): 100%
- Percent Residual hNE-Inhibitory Activity ([3]; Molar Ratio CHL-T:Inhibitor 0.25): 94%
- Percent Residual hNE-Inhibitory Activity [3, 5]: 102%
- Percent Residual hNE-Inhibitory Activity ([3]; Molar Ratio CHL-T:Inhibitor 1.5): 95%
- Percent Residual hNE-Inhibitory Activity ([3]; Molar Ratio CHL-T:Inhibitor 2.0): 102%
- Percent Residual hNE-Inhibitory Activity ([3]; Molar Ratio CHL-T:Inhibitor 4.0): 95%
- Percent Residual hNE-Inhibitory Activity [3, 6]: 98%
- Percent Residual hNE-Inhibitory Activity [3, 7]: 102%
- Residual hNE Inhibitory Activity ([4]; Temperature 0 ° C.): 101
- Residual hNE Inhibitory Activity ([4]; Temperature 23 ° C.): 103
- Residual hNE Inhibitory Activity ([4]; Temperature 37 ° C.): 97
- Residual hNE Inhibitory Activity ([4]; Temperature 52 ° C.): 101
- Residual hNE Inhibitory Activity ([4]; Temperature 65 ° C.): 95
- Residual hNE Inhibitory Activity ([4]; Temperature 80 ° C.): 101
- Residual hNE Inhibitory Activity ([4]; Temperature 93 ° C.): 88
- temperature below which full inhibitory activity is maintained [4]: below 90 °C
